Reference: patent publication US7838231

Assays:
[1] = target: endogenous ATF4 of HEK293T cells (UniProt P18848); experiment: cell-based or functional assay
[2] = target: full-length ATF4 (pCEP-ATF4) (UniProt P18848); experiment: cell-based or functional assay
full-length ATF4 (pCEP-ATF4), sequence (P18848 whole entry): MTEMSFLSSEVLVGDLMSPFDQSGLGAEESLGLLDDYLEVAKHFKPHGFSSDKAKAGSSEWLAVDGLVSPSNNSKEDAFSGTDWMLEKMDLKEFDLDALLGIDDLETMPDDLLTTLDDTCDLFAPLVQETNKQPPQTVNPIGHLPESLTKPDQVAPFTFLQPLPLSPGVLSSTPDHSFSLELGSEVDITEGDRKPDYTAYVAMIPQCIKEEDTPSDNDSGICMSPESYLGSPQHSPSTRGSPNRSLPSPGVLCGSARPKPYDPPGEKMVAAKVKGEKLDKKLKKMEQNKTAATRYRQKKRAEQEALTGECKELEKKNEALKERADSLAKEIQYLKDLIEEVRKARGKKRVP

endogenous ATF4 of HEK293T cells, sequence (P18848 whole entry): as above

| reporter activity (pCRE-ATF4X2, HEK293T cells) after knock-down of NPHP6 with pTER-NPHP6, compared to empty vector [1] | reporter activity (dual-luciferase reporter construct for ATF4, pCRE-ATF4×2, in HEK293T cells), compared to empty vector pCEP4F [2] | reporter activity (pCRE-ATF4×2, HEK293T cells) with either construct alone, compared to empty vector pCEP4F [2] | Substance |
| --- | --- | --- | --- |
| 75.4% | – | – | endogenous NPHP6 of HEK293 / HEK293T cells (from UniProt O15078 1-2479) |
| – | 9.7 fold | 2 fold | myc-tagged full-length human NPHP6 (pCJW206-Cep290) (from UniProt O15078 1-2479) |
